According to US9879058B2, “Use of compounds that selectively modulate astrocytic release of substances through hemichannels of connexins and pannexins, without influencing gap junctions, for the treatment of psychiatric disorders” (Universidad Andres Bello, priority 2012, dated 2018):
No end group written: not given here.

Assays:
[1] = target: T1, Cx43 gap junction channels (Rattus norvegicus, UniProt P08050); experiment: Lucifer yellow dye coupling in astroglial cultures; type: cell-based
T1 construct: endogenous in cells; host or cells: primary hippocampal astrocytes of newborn (PN1) rats
Protocol: F. Immunohistochemistry: Brain slices previously fixed in buffered 4% paraformaldehyde and maintained in 30% sucrose were mounted in gelatin coated glass slides. After rinsing with PBS, slices were blocked and permeabilized with 1% bovine serum albumin (BSA, Sigma-Aldrich), and 3% Triton X-100 in PBS for 1 h at room temperature. After rinsing again, sections were incubated overnight at 4° C. with the primary anti-Cx43 antibody (Sigma). Afterwards, sections were rinsed with PBS and incubated for 1 h at 37° C. with Alexa Fluor® 488-conjugated secondary antibody. To identify neurons and astrocytes, sections were incubated overnight at 4° C. with either monoclonal anti-MAP2 (M 4402, Sigma-Aldrich, St-Louis, Mo.) for neurons or polyclonal anti-GFAP (Sigma-Aldrich, St-Louis, Mo.) for astrocytes. Sections were washed and incubated for 1 h at 37° C. with Alexa Fluor® 568-conjugated secondary antibodies. Finally, slides were washed and permanently mounted using ProLong® (invitrogen). Staining specificity was assayed by incubation of sections in the absence of the primary antibody. Samples were examined using laser scanning confocal microscopy on a Fluoview FV1000 (Olympus). G. Primary Cell Cultures: G.1. Astrocyte cultures: Primary astrocyte cultures were prepared from hippocampus of newborn (PN1) rats. […]
J. Dye Coupling: Astrocytes plated on glass coverslips were bathed with recording medium (HCO3-free F-12 medium buffered with 10 mM HEPES, pH 7.2) and intercellular communication mediated by gap junctions was tested by evaluating the transfer to neighboring cells of Lucifer yellow (LY) (Sigma-Aldrich, St-Louis, Mo.) microinjected into one cell. […] The coupling index was calculated as the mean number of cells to which the dye spread. K. Data Analysis: Data were expressed as Mean+SD. Statistical differences were assessed by unpaired student's t-test (Mann-Whitney) and by one-way analysis of variance (ANOVA) for multiple comparisons, followed by Dunns post hoc test, and considered significant when p<0.05. p-values in the text are written as either <0.01% or <0.05%.

[2] = tested on: hippocampal primary neuronal cultures; experiment: ATP and glutamate release in neuronal cultures; type: cell-based, rat; conditions: peptide 1 mM; neuronal cultures without astrocytes
Protocol: G.2. Neuronal cultures: Hippocampal neurons were obtained from hippocampus of E18 rats. Briefly, hippocampi were dissected as mentioned above for astrocyte cultures. Cells were seeded directly on poly-L-ornithine coated coverslips (1×10^5 cells/coverslip) in Neurobasal medium supplemented with penicillin (5 U/ml), streptomycin (5 μg/ml), B27 supplement and glutamax. Partial medium changes (¼) were done twice a week. H. Dye uptake: For single image visualization of dye uptake, astrocytes were bathed in recording solution [in mM: NaCl (148), KCl (5), CaCl2 (1.8), MgCl2 (1), glucose (5), HEPES (5), pH=7.4] containing 5 μM ethidium (Etd) (Sigma-Aldrich, St-Louis, Mo.), and fluorescence intensity was recorded for 10 min in selected cells (ROI, regions of interest). […] Metafluor software (version 6.2R5, Universal Imaging Co., Downingtown, Pa., USA) was used for off-line image analysis and fluorescence quantification.
I. Measurement of ATP and glutamate release induced by TAT-Cx43L2: Neurons were plated in multi well culture trays (10^6 cells/well/0.5 ml) and 48 h later were used for experiments. Extracellular ATP was measured by luciferin/luciferase bioluminescence assay kit (Sigma-Aldrich, St. Louis, Mo., USA). […]

Cx43 hemichannels = Cx43 hemichannels (Homo sapiens, UniProt P17302); conditions: cited from earlier work
Sequence of Cx43 hemichannels (P17302 whole entry): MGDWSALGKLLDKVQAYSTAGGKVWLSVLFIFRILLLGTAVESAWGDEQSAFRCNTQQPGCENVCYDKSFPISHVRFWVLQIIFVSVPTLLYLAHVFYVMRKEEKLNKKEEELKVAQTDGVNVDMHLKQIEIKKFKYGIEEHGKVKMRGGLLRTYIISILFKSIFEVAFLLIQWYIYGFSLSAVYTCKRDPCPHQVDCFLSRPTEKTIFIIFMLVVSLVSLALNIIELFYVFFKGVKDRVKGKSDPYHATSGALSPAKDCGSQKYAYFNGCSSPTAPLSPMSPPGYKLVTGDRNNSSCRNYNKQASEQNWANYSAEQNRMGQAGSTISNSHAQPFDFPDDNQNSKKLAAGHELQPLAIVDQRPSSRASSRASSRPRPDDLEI

T1 sequence (P08050 whole entry): as the sequence (P17302 whole entry) above, with D124E, I164V, K243R, S251T, A253P, A257S, Q263P, S344A, L347V counted along it

YGRKKRRQRRRDGANVDMHLKQIEIKKFKYGIEEHGK [TAT-Cx43L2, synthetic cell-permeable peptide corresponding to the Cx43L2 region (aa 119-144) of the cytoplasmic loop of Cx43]
astroglial coupling (intracellular transfer of LY) ([1]; 1 mM, 10 min incubation, hippocampal astroglial cultures): did not affect astroglial coupling | astrocyte coupling incidence ([1]; n=3): had no effect on astrocyte coupling incidence | astrocyte coupling index ([1]; n=3): had no effects on astrocyte coupling index | ATP release in neuronal cultures [2]: did not affect | glutamate release in neuronal cultures [2]: did not affect | effect on Cx43 hemichannels, previously shown (Cx43 hemichannels): selectively block Cx43 hemichannels
